# In PMC3431356, “Staphylococcus aureus Methicillin-Resistance Factor fmtA Is Regulated by the Global Regulator SarA”:
# T1: SarA (Staphylococcus aureus MRSA252, UniProt Q6GJ52 1-124)
# T1 sequence: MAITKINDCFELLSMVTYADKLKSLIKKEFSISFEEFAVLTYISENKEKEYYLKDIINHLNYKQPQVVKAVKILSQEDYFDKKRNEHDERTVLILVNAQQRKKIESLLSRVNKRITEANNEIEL
# Columns and labels:
# [1] = target: T1, SarA; experiment: EMSA; no binding up to 1.8 uM SarA; EMSA: 10 mM Tris-HCl pH 7.5, 50 mM KCl, 1 mM DTT, 5 mM MgCl2, 2.5% glycerol, 1 ug poly(dI-dC), 200 ng herring sperm DNA, 30 min, temperature not stated, 6% native gel; Kd = protein at 50% bound DNA. Footprinting: same buffer, 37 C, DNase I at 25 C; settings: protein: recombinant; tags: none (pET22b, pelB leader removed); chain copies: 2; label: 5'-32P
# [2] = target: T1, SarA; experiment: EMSA; printed as >=1.8 uM; no saturation up to 3.6 uM, binding stated; EMSA: 10 mM Tris-HCl pH 7.5, 50 mM KCl, 1 mM DTT, 5 mM MgCl2, 2.5% glycerol, 1 ug poly(dI-dC), 200 ng herring sperm DNA, 30 min, temperature not stated, 6% native gel; Kd = protein at 50% bound DNA. Footprinting: same buffer, 37 C, DNase I at 25 C; settings: protein: recombinant; tags: none (pET22b, pelB leader removed); chain copies: 2; label: 5'-32P
# [3] = target: T1, SarA; experiment: EMSA; EMSA: 10 mM Tris-HCl pH 7.5, 50 mM KCl, 1 mM DTT, 5 mM MgCl2, 2.5% glycerol, 1 ug poly(dI-dC), 200 ng herring sperm DNA, 30 min, temperature not stated, 6% native gel; Kd = protein at 50% bound DNA. Footprinting: same buffer, 37 C, DNase I at 25 C; settings: protein: recombinant; tags: none (pET22b, pelB leader removed); chain copies: 2; label: 5'-32P; blunt
binder,measurement,setting,value
seqB1 (dsDNA) DNA 1: CATATTAGAAAAACTTATTACTATGTAGCGTAAAGC DNA 2: GCTTTACGCTACATAGTAATAAGTTTTTCTAATATG,binding result,[1],no binding
seqA1 (dsDNA) DNA 1: CATTATAGCCTTAAATTGTAGTACTTTATAGTAAAAAATACAAATGTTATGTC DNA 2: GACATAACATTTGTATTTTTTACTATAAAGTACTACAATTTAAGGCTATAATG,Kd,[2],> 1800 nM
Pagr 45-bp (dsDNA) DNA 1: GTAAATTTTTTTATGTTAAAATATTAAATACAAATTACATTTAAC DNA 2: GTTAAATGTAATTTGTATTTAATATTTTAACATAAAAAAATTTAC,Kd,[3],~400 nM
